Experimental data: US20200347138A1 (INDIAN INSTITUTE OF SCIENCE, published 2020)

What was measured:
MAb B52/28 = target: T1, MAb B52/28; assay: RIA: unlabelled hormone displaces 125I-hCG from MAb 52/28 [left panel (A]
T1 construct: hCG heterodimer specific monoclonal antibody used in the RIA
Protocol: The antigen-antibody complexes formed were precipitated by adding an appropriate dilution of the normal mouse/rabbit serum, and goat anti-mouse/rabbit IgG followed by addition of 2.5% PEG. The tubes were centrifuged at 4,000 g for 20 minutes at 4 □, the supernatant was discarded and the radioactivity in the pellet was counted in Perkin Elmer γ-counter. The non-specific binding was determined by carrying out binding experiments in the absence of the primary antibodies.
The biotin tagged hormonal antigens were analyzed by RIA using hormone specific antibodies (52/28 for hCG and FSH a/s for hFSH) for their ability to retain their immunodominant epitopes. […] The NIH iodination grade hCG and hFSH were used as the standard reference preparations in the RIA and were used for comparing the bioactivity of these hormonal antigens.

human DEC205 = target: T2, human DEC205 (human, UniProt O60449 28-1722); assay: flow cytometry on CHO/hDEC205 cells, hCG a/s and anti-rabbit IgG-FITC
T2 construct: also called hDEC205; CHO/hDEC205
T2 sequence (O60449 28-1722 K1321N/Y1391H limits assumed): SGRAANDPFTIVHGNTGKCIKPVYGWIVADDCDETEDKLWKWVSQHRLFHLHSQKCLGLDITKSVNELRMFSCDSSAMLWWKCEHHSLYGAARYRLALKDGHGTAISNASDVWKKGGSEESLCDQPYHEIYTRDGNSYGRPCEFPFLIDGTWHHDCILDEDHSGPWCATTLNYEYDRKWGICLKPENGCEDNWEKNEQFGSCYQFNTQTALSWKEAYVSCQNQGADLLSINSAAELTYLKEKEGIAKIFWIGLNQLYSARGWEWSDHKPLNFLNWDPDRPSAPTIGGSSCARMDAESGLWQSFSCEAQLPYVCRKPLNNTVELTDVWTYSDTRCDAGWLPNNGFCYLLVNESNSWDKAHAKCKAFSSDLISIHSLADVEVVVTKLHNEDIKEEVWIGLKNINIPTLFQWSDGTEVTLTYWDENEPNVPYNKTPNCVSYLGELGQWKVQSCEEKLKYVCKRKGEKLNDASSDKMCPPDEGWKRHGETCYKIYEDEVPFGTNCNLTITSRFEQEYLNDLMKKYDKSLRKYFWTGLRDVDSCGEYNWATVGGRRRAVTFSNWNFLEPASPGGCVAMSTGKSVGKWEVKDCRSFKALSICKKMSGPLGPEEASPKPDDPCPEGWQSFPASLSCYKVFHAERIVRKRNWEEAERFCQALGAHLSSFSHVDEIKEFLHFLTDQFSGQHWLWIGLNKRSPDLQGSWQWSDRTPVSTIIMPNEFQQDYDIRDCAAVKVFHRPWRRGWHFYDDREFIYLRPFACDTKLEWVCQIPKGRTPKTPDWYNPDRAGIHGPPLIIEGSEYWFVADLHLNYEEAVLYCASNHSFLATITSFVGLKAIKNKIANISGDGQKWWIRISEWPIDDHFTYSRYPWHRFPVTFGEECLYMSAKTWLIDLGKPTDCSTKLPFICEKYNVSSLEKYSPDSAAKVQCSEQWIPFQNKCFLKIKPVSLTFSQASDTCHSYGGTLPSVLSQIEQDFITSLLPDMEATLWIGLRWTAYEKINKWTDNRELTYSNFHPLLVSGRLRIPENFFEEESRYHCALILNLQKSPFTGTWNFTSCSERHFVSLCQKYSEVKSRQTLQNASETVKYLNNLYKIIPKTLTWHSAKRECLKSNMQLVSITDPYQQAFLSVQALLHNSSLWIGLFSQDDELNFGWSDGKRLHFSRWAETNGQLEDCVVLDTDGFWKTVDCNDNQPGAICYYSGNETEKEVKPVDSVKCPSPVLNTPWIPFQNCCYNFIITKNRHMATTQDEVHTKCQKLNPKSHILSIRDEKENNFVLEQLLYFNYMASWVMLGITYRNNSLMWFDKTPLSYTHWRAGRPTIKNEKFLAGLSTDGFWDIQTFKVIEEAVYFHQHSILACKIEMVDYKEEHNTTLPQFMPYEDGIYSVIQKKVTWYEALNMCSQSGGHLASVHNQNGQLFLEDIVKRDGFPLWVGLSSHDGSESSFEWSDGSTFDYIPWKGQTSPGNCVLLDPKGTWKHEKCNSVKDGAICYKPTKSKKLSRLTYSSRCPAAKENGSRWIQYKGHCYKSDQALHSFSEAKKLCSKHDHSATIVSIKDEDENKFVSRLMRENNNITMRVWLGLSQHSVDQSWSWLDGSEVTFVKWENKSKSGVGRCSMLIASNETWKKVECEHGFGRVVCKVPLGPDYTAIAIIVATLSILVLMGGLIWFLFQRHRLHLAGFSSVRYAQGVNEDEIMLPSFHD
Protocol: The ability of ScFv to load antigen onto the human DEC205 was checked by flow cytometry.
The complex was incubated with CHO/hDEC205 cells for one hour at 4□ followed by incubation with hCG a/s and subsequently with anti-Rabbit IgG FITC and binding was analyzed by flow cytometry.

- IC50 (read off the curve) (MAb B52/28): ~6 ng/tube
- binding result (human DEC205): no binding
B1: biotin tagged recombinant human chorionic gonadotropin (ligand)
chain 1: not shown
chain 2: SKEPLRPRCRPINATLAVEKEGCPVCITVNTTICAGYCPTMTRVLQGVLPALPQVVCNYRDVRFESIRLPGCPRGVNPVVSYAVALSCQCALCRRSTTDCGGPKDHPLTCDDPRFQDSSSSKAPPPSLPSPSRLPGPSDTPILPQ
modifications: biotin by Sulfo-NHS-LC Biotin on the hormone, sites not stated
notes: also called biotin-hCG
